B1: CPEB3 Ribozyme (parent)
chain: GGGGGCCACAGCAGAAGCGUUCACGUCGCGGCCCCUGUCAGAUUCUGGUGAAUCUGCGAAUUCUGCUGU

In this series the parent is B1. The series can be described thus: self-cleavage, relative activity (ratio to wild type); higher = more cleavage; co-transcriptional.
As to G11U U55G, the self-cleavage amounted to 0.225.

With C12A G68U, the self-cleavage was found to be 0.807. In the case of C12A G68C, the self-cleavage came to 0.842. As for C12A G68A, the self-cleavage turned out to be 0.843. Next, C12U G25U: 0.134; C12U G25C: 0.121; C12U G25A: 0.184. As for C12A U61G, the figure is 0.316; as for C12A U61C, 0.246; as for C12A U61A, 0.312. Take C12U A40C: the self-cleavage was 0.358. On to C12U A40G, for which the self-cleavage came to 0.902. Next, G11U U26C: 0.712; G11U U26A: 0.552; C12G C66U: 0.69. Next, C12G C66A: 0.487; C12G C66G: 0.513. Next, G11U U36C: 0.59. G11U U36G: the self-cleavage is 0.167.

In the case of C12A C32U, the self-cleavage worked out at 0.79. For the variant C12A C32G, the self-cleavage stood at 0.118.

For the variant C12A C32A, the self-cleavage was 0.402. As for C12G U49G, the figure is 0.857. As for C12G U64A, the figure is 0.508. Consider C12A U44G, for which the self-cleavage turned out to be 0.55. Take C12A U44C: the self-cleavage was found to be 0.343. As for C12A U44A, the figure is 0.349; as for C12U C57A, 0.438; as for C12U C57G, 0.31. Next, C12U C66A: 0.571; C12G G47C: 0.888; C12G G47U: 0.965. Next, C12G G47A: 0.912. In the case of C12A C45A, the self-cleavage turned out to be 0.579. For C12A C45G, the self-cleavage was 0.614. As for G11U U20C, the figure is 0.131; as for G11U U20A, 0.119; as for G11U U20G, 0.121. For C12A U20C, the self-cleavage is 0.132. Next, C12A U20A: 0.0992; C12A U20G: 0.18; C12A C24A: 0.236.

With C12A C24G, the self-cleavage turned out to be 0.138. In the case of C12A C24U, the self-cleavage stood at 0.302.

For the variant C12A U55G, the self-cleavage stood at 0.172. Take C12A U55A: the self-cleavage was 0.23. As to C12U C63G, the self-cleavage turned out to be 0.443. As for C12A C54G, the figure is 0.392; as for C12A C54A, 0.311. As for C12G U44C, the figure is 0.488; as for C12G U44G, 0.868.

Consider C12U C29U, for which the self-cleavage is 0.232. For C12U C29G, the self-cleavage was found to be 0.317. As for C12U A52C, the figure is 0.903; as for C12U A52G, 1.01. On to C12G G28A, for which the self-cleavage is 0.163.

In the case of C12G G28C, the self-cleavage is 0.157.

C12G C32U: the self-cleavage was determined as 0.834. Next, C12G C32A: 0.224.

With C12G C32G, the self-cleavage is 0.334. As for C12U C27A, the figure is 0.419; as for C12U C27U, 0.297.

On to C12A U69A, for which the self-cleavage turned out to be 0.886. Turning to C12A U69C, the self-cleavage was 0.981.

On to G11U U49C, for which the self-cleavage is 0.847. Regarding G11U U49A, the self-cleavage was determined as 0.941. As for G11U U49G, the figure is 0.98; as for C12A U67C, 0.812; as for C12A U67G, 0.791. As for C12A U67A, the figure is 0.671; as for C12A A16G, 0.385; as for C12A A16C, 0.128.

C12G G37A: the self-cleavage stood at 0.174. Next, C12G U36G: 0.294; C12G U36A: 0.228.

In the case of C12U A23G, the self-cleavage turned out to be 0.946. With C12U A23U, the self-cleavage turned out to be 0.963. Take C12A A60G: the self-cleavage was determined as 0.372. As for C12A A60U, the self-cleavage is 0.257. As for C12A U62G, the figure is 0.312. As for C12A U62A, the figure is 0.248; as for C12U C18A, 0.0961; as for C12U C18G, 0.218.

Regarding C12U C18U, the self-cleavage is 0.6.

In the case of C12A U46C, the self-cleavage was found to be 0.609. As for C12A U46G, the figure is 0.628; as for C12G G31U, 0.206. In the case of C12G G31C, the self-cleavage came out at 0.217. Next, C12G G31A: 0.334. As for C12G U38A, the figure is 0.739.

On to C12G U38G, for which the self-cleavage amounted to 0.126.

Consider C12U G30A, for which the self-cleavage amounted to 0.864.

With C12A G47U, the self-cleavage was 0.876.

Regarding C12A G47A, the self-cleavage is 0.875.

C12A G47C: the self-cleavage is 0.837. Next, C12G U67G: 0.797; C12G U67A: 0.8. As for C12U A13C, the figure is 0.629; as for C12U A13U, 0.583. Regarding C12U A13G, the self-cleavage worked out at 0.793. Next, C12A U43A: 0.259; C12A U43G: 0.207. Turning to C12A U43C, the self-cleavage was determined as 0.453. As for C12A C35U, the figure is 0.624; as for C12A C35A, 0.149; as for C12G U26A, 0.695. Next, C12G U26C: 0.74; C12G U26G: 0.729; C12G G68U: 0.917. On to C12A A40U, for which the self-cleavage came to 0.218. Next, C12A A40C: 0.209; C12A A40G: 0.437; C12U A15G: 0.999. As for C12U A15U, the figure is 0.502; as for C12G C27A, 0.216.

As to C12G C27U, the self-cleavage was 0.0756. As for C12A C39G, the figure is 0.346; as for C12A C39A, 0.228; as for C12A C39U, 0.355.

Regarding C12G A40G, the self-cleavage is 0.672. C12G A40U: the self-cleavage came out at 0.404.

In the case of C12A C57A, the self-cleavage was found to be 0.172.

Take C12A C57U: the self-cleavage came out at 0.317. As for C12A C57G, the figure is 0.212. Next, C12A A51G: 0.805. As for C12G G48U, the figure is 0.925; as for C12G G48A, 0.953.

For the variant C12U G19C, the self-cleavage amounted to 0.154. Consider C12U G19A, for which the self-cleavage was 0.12. Next, C12G C34A: 0.699; C12G C34U: 0.89; C12A G28C: 0.164. Next, C12A G28U: 0.141. Next, C12G U20G: 0.125; C12G U20A: 0.228. For C12A U38G, the self-cleavage was 0.235. In the case of C12G G41A, the self-cleavage turned out to be 0.353. Consider G11U U53C, for which the self-cleavage is 0.329. As for G11U U53G, the figure is 0.487; as for C12G A42G, 0.649; as for C12G A42C, 0.493.

In the case of C12G A42U, the self-cleavage was 0.61.

As to C12A A15C, the self-cleavage came out at 0.274.

For C12A A15U, the self-cleavage amounted to 0.106. In the case of C12A A15G, the self-cleavage is 0.514. Next, C12U A42G: 0.863; C12U A42U: 0.91. In the case of C12U A42C, the self-cleavage was 0.885. For the variant C12G G56C, the self-cleavage worked out at 0.345. C12G G25U: the self-cleavage came to 0.101. C12G G25A: the self-cleavage was determined as 0.161. For the variant C12A G50A, the self-cleavage turned out to be 0.809. Turning to C12A G50U, the self-cleavage is 0.738. As for C12A G50C, the figure is 0.591; as for C12G U21A, 0.845. As for C12G U21G, the figure is 0.364; as for C12G A16G, 0.578.

For the variant C12A A59C, the self-cleavage worked out at 0.347. Next, C12A A59G: 0.653; C12A A59U: 0.343. Next, C12A A52C: 0.571. Consider C12A A52G, for which the self-cleavage was determined as 0.788. As for C12A A52U, the figure is 0.603. C12G U55A: the self-cleavage is 0.403. For the variant C12G U55G, the self-cleavage amounted to 0.284. As for C12G U55C, the self-cleavage was 0.558. For the variant C12G G30C, the self-cleavage came out at 0.367.

The values are drawn from the RNAGym collection of RNA variant scans (doi:10.7554/elife.80360).
